Results: publication PMC2643003, “Improved Learning and Memory in Aged Mice Deficient in Amyloid β-Degrading Neutral Endopeptidase” (PLoS ONE, 2009)

Key:
[1] = assay type: in vitro ADME, mice
Procedure: Figure 5 NEP-dependent neuropeptide degradation. […] The reactions were stopped by adding 0.35 M perchloric acid. In parallel assays, heat-inactivated probes (5 min at 90°C) were used as a control. After centrifugation of sedimented proteins, HPLC analyses were performed by isocratic elution as described by Siems et al.. […] The reactions were stopped by addition of 0.35 M perchloric acid. In parallel assays, heat-inactivated NEP (5 min at 90°C) was used as a control. HPLC analysis was performed by isocratic elution as described. The significance of differences was calculated by two-sided t test; n≥4; **P<0.01. (c) For galanin and GLP-1 immunohistochemistry, slices were incubated with the specific antibodies, followed by incubation with biotinylated anti-rabbit IgG. Immunoreactive products were visualized by the nickel ammonium sulfate-intensified diaminobenzidine reaction. Unequivocally stained regions in the murine cortex were localized and defined as ROIs (regions of interest), and luminometrically compared with adjacent regions without detectable staining (reference ROIs) (for both regions n = 40). The calculated differences were shown as mean±s.e.m.). Significant differences were calculated by Student's t test, indicated by **P<0.01, ***P<0.001.
The production of brain membranes and the HPLC-monitored peptide degradation procedures were performed as described in detail by Siems et al.. […]

[2] = tested on: associative and spatial learning; details: injected intracerebroventricularly; cited from earlier work
Source text: It has been shown that NEP targets a variety of peptides involved in learning and memory such as oxytocin [36], NPY [37] or CCK [38]. Thus, marked improvement in learning and memory in very old NEP-deficient mice if compared with their aged-matched controls appears to be explained best by these NEP-degradable neuropeptides. Nevertheless, the known catalytic properties of NEP - it preferentially hydrolyses oligopeptides by cleaving on the N-terminal side of hydrophobic amino acid residues - and the knowledge of further potential learning-associated peptides [39]–[42] motivated us to t ...

NEP [3] = details: infusion into hippocampus or cortical ventricle, young rats, 4 weeks, local Aβ accumulation; cited from earlier work
Source text: The underlying mechanisms leading to better learning and improved LTP are still speculative. However, this improved learning seems more likely to be an Aβ-independent effect in our mouse model.

NEP [4] = details: rats and mice after treatment with thiorphan; cited from earlier work
Source text: Consistent with previous studies showing a broad spectrum of peptidases inhibited by that peptidase inhibitor [18], we hypothesized that there were other factors inhibited by thiorphan as a requisite for murine Aβ accumulation.

recombinant (rc) NEP = target: T1, recombinant (rc) NEP (Homo sapiens, UniProt P08473); assay: HPLC-monitored peptide degradation by recombinant NEP; assay type: in vitro ADME; details: peptide 5 µM, rcNEP 20 ng (R&D Systems), over 120 min, stopped with 0.35 M perchloric acid, heat-inactivated control, HPLC isocratic elution, n≥3; values only in Figure 5a
T1 construct: purchased R&D Systems GmbH (Wiesbaden, Germany)
T1 sequence (P08473 whole entry): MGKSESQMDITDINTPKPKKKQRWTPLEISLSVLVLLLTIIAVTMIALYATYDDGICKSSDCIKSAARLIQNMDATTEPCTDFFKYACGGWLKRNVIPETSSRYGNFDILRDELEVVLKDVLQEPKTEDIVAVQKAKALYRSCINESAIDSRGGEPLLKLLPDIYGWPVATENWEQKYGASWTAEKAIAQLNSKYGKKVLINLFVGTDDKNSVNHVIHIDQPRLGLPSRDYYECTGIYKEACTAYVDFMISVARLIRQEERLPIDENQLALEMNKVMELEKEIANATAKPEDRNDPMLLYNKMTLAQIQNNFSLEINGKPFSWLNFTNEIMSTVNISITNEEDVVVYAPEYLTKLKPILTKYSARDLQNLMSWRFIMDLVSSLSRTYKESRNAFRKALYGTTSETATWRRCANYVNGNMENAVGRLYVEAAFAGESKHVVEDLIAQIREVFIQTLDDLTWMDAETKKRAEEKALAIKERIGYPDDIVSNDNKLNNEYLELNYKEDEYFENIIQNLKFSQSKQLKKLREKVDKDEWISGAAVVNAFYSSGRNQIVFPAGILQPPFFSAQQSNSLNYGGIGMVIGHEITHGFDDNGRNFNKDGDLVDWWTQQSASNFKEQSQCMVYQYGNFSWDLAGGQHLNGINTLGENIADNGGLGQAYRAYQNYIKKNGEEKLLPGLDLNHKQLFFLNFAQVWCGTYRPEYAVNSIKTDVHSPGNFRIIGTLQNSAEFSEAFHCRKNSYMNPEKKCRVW
Procedure: The reactions were stopped by adding 0.35 M perchloric acid. In parallel assays, heat-inactivated probes (5 min at 90°C) were used as a control. After centrifugation of sedimented proteins, HPLC analyses were performed by isocratic elution as described by Siems et al. [45]. […] The reactions were stopped by addition of 0.35 M perchloric acid. In parallel assays, heat-inactivated NEP (5 min at 90°C) was used as a control. HPLC analysis was performed by isocratic elution as described [45].
The production of brain membranes and the HPLC-monitored peptide degradation procedures were performed as described in detail by Siems et al. [45]. […] The recombinant NEP was obtained from R&D Systems GmbH (Wiesbaden, Germany).

Question: For glucagon-like peptide 1 [GLP-1], which “peptide degradation in brain membranes of wild-type (+/+) and knockout mice (−/−)” value [1] is on record?
Answer: Its value is “reduced rate of GLP-1 degradation in brains lacking NEP”.

Question: And the “effect on associative and spatial learning” value [2]?
Answer: The value was “improve associative and spatial learning”.

Question: Which results are given for `O=C(O)CNC(=O)C(CS)Cc1ccccc1` (stereo not drawn) [thiorphan]?
Answer: effect on learning and memory (NEP [3]): impaired learning and memory; deposition of endogenous Aβ (NEP [4]): plaque formation and fibrillization

Question: Which results are given for galanin?
Answer: degradation by rcNEP (recovery in %) (recombinant (rc) NEP): identified galanin as a NEP substrate; peptide degradation in brain membranes of wild-type (+/+) and knockout mice (−/−) [1]: identified galanin as a NEP substrate
